Reference: US10314894B2, “Treatment of cardio-renal disease using PCSK6” (THE CLEVELAND CLINIC FOUNDATION, priority 2014, dated 2019)
“Also recorded” adds a separate entry of the source.

Biological target: T1, corin WT (Homo sapiens, UniProt Q9Y5Q5)
T1 construct: expressed in transfected cells; host or cells: HEK293
T1 sequence (Q9Y5Q5 1-1042): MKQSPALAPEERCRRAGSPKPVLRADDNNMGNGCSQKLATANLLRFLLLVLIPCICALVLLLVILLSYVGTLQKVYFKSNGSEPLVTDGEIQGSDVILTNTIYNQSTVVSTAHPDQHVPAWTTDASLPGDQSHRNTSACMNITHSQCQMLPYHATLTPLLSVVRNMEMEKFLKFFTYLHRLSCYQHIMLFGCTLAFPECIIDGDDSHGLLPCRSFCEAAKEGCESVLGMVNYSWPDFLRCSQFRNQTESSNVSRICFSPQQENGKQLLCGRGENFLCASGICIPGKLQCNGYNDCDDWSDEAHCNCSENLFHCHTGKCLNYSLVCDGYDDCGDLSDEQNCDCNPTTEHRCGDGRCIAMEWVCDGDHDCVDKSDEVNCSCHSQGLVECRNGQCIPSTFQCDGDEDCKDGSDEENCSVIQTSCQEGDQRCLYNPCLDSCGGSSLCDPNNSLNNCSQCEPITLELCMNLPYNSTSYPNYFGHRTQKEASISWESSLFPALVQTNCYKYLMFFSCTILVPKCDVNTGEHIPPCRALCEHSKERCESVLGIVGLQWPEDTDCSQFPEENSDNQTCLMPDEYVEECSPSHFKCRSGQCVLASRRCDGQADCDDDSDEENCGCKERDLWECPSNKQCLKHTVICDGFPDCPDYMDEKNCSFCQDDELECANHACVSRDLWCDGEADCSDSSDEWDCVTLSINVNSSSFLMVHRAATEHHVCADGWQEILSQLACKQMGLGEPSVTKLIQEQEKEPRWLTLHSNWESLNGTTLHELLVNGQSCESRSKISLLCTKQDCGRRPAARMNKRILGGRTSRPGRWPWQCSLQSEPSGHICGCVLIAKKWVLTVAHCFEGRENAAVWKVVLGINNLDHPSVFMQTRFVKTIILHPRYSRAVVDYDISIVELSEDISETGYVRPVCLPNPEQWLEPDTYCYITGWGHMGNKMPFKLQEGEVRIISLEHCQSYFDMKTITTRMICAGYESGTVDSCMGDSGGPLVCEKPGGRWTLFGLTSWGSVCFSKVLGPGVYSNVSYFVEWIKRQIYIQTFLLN
Experiment: Corin activation by purified PCSK6 on HEK293 cells, corin WT
Assay type: cell-based
Details: increasing concentrations, 2 h, 37° C.
Description: HEK293 and HL-1 cells expressing recombinant corin in 6-well plates were incubated with 1.5 mL (200 μM) of membrane impermeable Sulfo-NHS-SS-biotin for 5 min. Qi et al., J Biol Chem 286, 20963-20969 (2011). A quenching solution was added to the wells and incubated on ice for 10 min. Cells were lysed in the lysis buffer. Labeled proteins were isolated with avidin-coupled agarose beads and analyzed by Western blotting.
Stable HEK293 cells were established to produce human PCSK6 with a C-terminal flag tag. The cells were cultured in DMEM with 10% FBS and 600 μg/mL G418. At confluency, the cells were washed with PBS and cultured with Reduced-Serum Medium. After 72 h, the conditioned medium was collected, centrifuged (10 min at 17,000 g) to remove cell debris, and concentrated to ⅕ of the original volume using a Centrifugal filter unit at 4° C. The concentrated medium was incubated with anti-flag M2 affinity bead slurry in a volume ratio of 25:1 on a rotator at 4° C. for 2 h. […] After centrifugation, the supernatant containing purified PCSK6 was collected, and analyzed by SDS-PAGE followed by silver staining and Western blotting.
Stable HEK293 cells expressing human corin were cultured in 6-well plates in DMEM with 10% FBS and 2 μM monensin. […] After 2 h, cell surface proteins were labeled and corin protein was analyzed by Western blotting.

B1: proprotein convertase subtilisin/kexin-6 (protein, listed as Homo sapiens)
chain: MPPRAPPAPGPRPPPRAAAATDTAAGAGGAGGAGGAGGPGFRPLAPRPWRWLLLLALPAACSAPPPRPVYTNHWAVQVLGGPAEADRVAAAHGYLNLGQIGNLEDYYHFYHSKTFKRSTLSSRGPHTFLRMDPQVKWLQQQEVKRRVKRQVRSDPQALYFNDPIWSNMWYLHCGDKNSRCRSEMNVQAAWKRGYTGKNVVVTILDDGIERNHPDLAPNYDSYASYDVNGNDYDPSPRYDASNENKHGTRCAGEVAASANNSYCIVGIAYNAKIGGIRMLDGDVTDVVEAKSLGIRPNYIDIYSASWGPDDDGKTVDGPGRLAKQAFEYGIKKGRQGLGSIFVWASGNGGREGDYCSCDGYTNSIYTISVSSATENGYKPWYLEECASTLATTYSSGAFYERKIVTTDLRQRCTDGHTGTSVSAPMVAGIIALALEANSQLTWRDVQHLLVKTSRPAHLKASDWKVNGAGHKVSHFYGFGLVDAEALVVEAKKWTAVPSQHMCVAASDKRPRSIPLVQVLRTTALTSACAEHSDQRVVYLEHVVVRTSISHPRRGDLQIYLVSPSGTKSQLLAKRLLDLSNEGFTNWEFMTVHCWGEKAEGQWTLEIQDLPSQVRNPEKQGKLKEWSLILYGTAEHPYHTFSAHQSRSRMLELSAPELEPPKAALSPSQVEVPEDEEDYTAQSTPGSANILQTSVCHPECGDKGCDGPNADQCLNCVHFSLGSVKTSRKCVSVCPLGYFGDTAARRCRRCHKGCETCSSRAATQCLSCRRGFYHHQEMNTCVTLCPAGFYADESQKNCLKCHPSCKKCVDEPEKCTVCKEGFSLARGSCIPDCEPGTYFDSELIRCGECHHTCGTCVGPGREECIHCAKNFHFHDWKCVPACGEGFYPEEMPGLPHKVCRRCDENCLSCAGSSRNCSRCKTGFTQLGTSCITNHTCSNADETFCEMVKSNRLCERKLFIQFCCRTCLLAG
modifications: C-terminal FLAG tag
activation of corin on the cell surface by purified recombinant PCSK6: activated corin on the surface of HEK293 cells in a dose-depending manner; also recorded: activated corin WT
